Results: patent US20210032294A1, “MODIFIED PlySs2 LYSINS AND USES THEREOF” (CONTRAFECT CORPORATION, priority 2018, published 2021)
Positions count from the first letter of the chain named. Numbers in names are those of the source. Where “and” joins values, the source holds several entries; their conditions need not be identical. Equal entries are not always repeated.

B1: CF-301: WT GMP grade PlySs2 lysin, SEQ ID NO: 1 (protein, listed as Streptococcus suis)
chain: MTTVNEALNNVRAQVGSGVSVGNGECYALASWYERMISPDATVGLGAGVGWVSGAIGDTISAKNIGSSYNWQANGWTVSTSGPFKAGQIVTLGATPGNPYGHVVIVEAVDGDRLTILEQNYGGKRYPVRNYYSAASYRQQVVHYITPPGTVAQSAPNLAGSRSYRETGTMTVTVDALNVRRAPNTSGEIVAVYKRGESFDYDTVIIDVNGYVWVSYIGGSGKRNYVATGATKDGKRFGNAWGTFK
B2: pp55: Modified PlySs2 lysin, SEQ ID NO: 3: L92W, V104S, V128T, Y137S; extra C-terminal lysine (+246K) (protein)
chain: B1 chain with L92W, V104S, V128T, Y137S
B3: pp61: Modified PlySs2 lysin, SEQ ID NO: 4: L92W, V104S, V128T, Y137S, S198H, I206E; +246K (protein)
chain: B1 chain with L92W, V104S, V128T, Y137S, S198H, I206E
B4: pp65: Modified PlySs2 lysin, SEQ ID NO: 5: L92W, V104S, V128T, Y137S, S198Q, V204A, V212A; +246K (protein)
chain: B1 chain with L92W, V104S, V128T, Y137S, S198Q, V204A, V212A

Assays:
bacterial inoculum = assay: Thermal stability: in vitro lytic assay after 30 min heating; type: cell-based; settings: for % Wild-Type Activity at 37° C. / % of CF-301 wild-type, 37° C.: 30 minutes at 37° C.; for % Wild-Type Activity at 37° C.: 128 μg/mL in Tris buffer pH 8.0, CF-301 set at 100; for % of CF-301 wild-type, 37° C.: another experiment; for % of CF-301 wild-type, 40° C.: 30 minutes at 40° C.; for % of CF-301 wild-type, 42° C.: 30 minutes at 42° C.; for % of CF-301 wild-type, 45° C.: 30 minutes at 45° C.; for % of CF-301 wild-type, 48° C.: 30 minutes at 48° C.; for % of CF-301 wild-type, 50° C.: 30 minutes at 50° C.
Experimental: Thermal stability was assessed by incubating the lysin polypeptides at a fixed concentration of 128 μg/mL in Tris buffer pH 8.0 for 30 minutes at various elevated temperatures (within the range of about 30° C. to 60° C.) prior to assessing activity. The samples were then cooled for 2 minutes on ice and activity was then assessed by an in vitro lytic assay by exposing a bacterial inoculum (OD600 ˜0.5-1.2) in Tris buffer to a 2-fold dilution series of each sample (diluted from 128-0.25 μg/mL across the x-axis of a 96 well microtiter plate). The loss of optical density was followed for 15 minute at room temperature, and the specific activity was determined based on the enzyme concentration enabling a 50% loss of optical density at 15 minutes. The enzyme activities of each variant were compared to the wild-type, CF-301 enzyme (GMT-grade PlySs2 protein) to calculate the % of Wild-Type Activity over a range of temperatures.
The thermal stability of wild-type, CF-301 was arbitrarily set at 100. The results for exemplary modified lysin polypeptides are set forth below in Table 5 at a single temperature of 37° C.:
In another experiment, the thermal stability of modified lysin polypeptides was assessed at different temperatures and compared with that of wild-type, CF-301 (set at 100).

MSSA isolates = assay: MIC in CAMHB-HSD against MSSA isolates; type: cell-based, Staphylococcus aureus; settings: 51 MSSA isolates
Experimental: (§1) In vitro activity of the modified lysin polypeptide pp296 was assessed against a range of 51 MSSA and 51 MRSA isolates in cation-adjusted Mueller Hinton broth supplemented with 25% horse serum and 0.5 mM DTT (CAMHB-HSD) and compared to WT GMP grade PlySs2 (CF-301). CF-301 and pp296 were each diluted into CAMHB-HSD. For each lysin, the dilution series is set up such that, after a two-fold dilution of each well of the plate, the final concentrations contained: 64, 32, 16, 8, 4, 2, 1, 0.5, 0.25, and 0.125 μg/mL. Each lysin was tested in duplicate against each strain. Preparations were incubated overnight. Growth was visualized as a growth button approximately 2 mm in diameter. The highest dilution that yielded ≥80% growth inhibition was called the minimum inhibitory concentration (MIC). The activity of pp296 was very similar, within one 2-fold dilution, to that of CF-301, as shown below in Table 7.

MRSA isolates = assay: MIC in CAMHB-HSD against MRSA isolates; type: cell-based, Staphylococcus aureus; settings: 51 MRSA isolates
Experimental: as §1

[1] = tested on: 5 MRSA strains and 5 MSSA strains; assay: Checkerboard synergy assay with daptomycin or vancomycin; type: cell-based, Staphylococcus aureus; settings: with vancomycin
Experimental: Synergy studies with antibiotics suitable for treatment of Gram-positive bacteria, for example, daptomycin (DAP) and vancomycin (VAN), were performed using a checkerboard assay. Fractional inhibitory concentration (FIC) index values were determined for modified lysin polypeptide pp296 and antibiotic combinations against 5 methicillin-sensitive Staphylococcus aureus (MSSA) and 5 methicillin resistant Staphylococcus aureus (MRSA) isolates. An FIC index value of ≤0.5 may be interpreted as strong synergy between the two agents, while a value between 0.5 and 1 may still be considered a synergistic effect. Given that pp296 has four amino acid replacements in the catalytic domain, the ability of pp296 to synergize with antibiotics was unexpected. […] Qualitatively similar results may be anticipated upon performing similar assays using other de-immunized active variants, such as pp55, pp61, pp65, pp400, and pp619, in accordance with the present disclosure.
In another experiment, the ability of modified lysin polypeptide pp296 to synergize with daptomycin and vancomycin was assessed using a checkerboard analysis. FIC (fractional inhibitory concentration) index values were determined for pp296 and antibiotic combinations against 5 MSSA and 5 MRSA isolates. A total of 50 μl of Mueller-Hinton broth (BBL) was distributed into each well of microdilution plates. The first antibiotic of the combination was serially diluted along the ordinate, while the second drug was diluted along the abscissa. An inoculum equal to a 0.5 McFarland turbidity standard was prepared from each S. aureus isolate in MHB. Each microtiter well was inoculated with 100 μl of a bacterial inoculum of 5×10^5 CFU/ml, and the plates were incubated at 37° C. for 18 h under aerobic conditions. The resulting checkerboard contained each combination of two antibiotics, with wells that contained the highest concentration of each antibiotic at opposite corners. […] To quantify the interactions between the antibiotics being tested, the FIC index (the combination of antibiotics that produced the greatest change from the individual antibiotic's MIC) value was calculated for each strain and antibiotic combination as follows:
(A/MICA)+(B/MICB)=FICA+FICB=FIC index,
Checkerboards were generated using combinations of pp296 with either daptomycin or vancomycin against 5 MRSA strains (MW2, JMI-5675, JMI-4408, JMI-6181, and JMI-6182) and 5 MSSA strains (ATCC 29213, JMI-40979, JMI-43257, JMI-41293, and JMI-49315). Synergy was defined as inhibitory activity greater than what would be predicted by adding the two components together.

[2] = tested on: 1-day old biofilms formed by MSSA isolates; assay: Minimum Biofilm Eradication Concentration (MBEC), MSSA biofilms; type: cell-based, Staphylococcus aureus; settings: 24 hours treatment
Experimental: (§2) In some embodiments, the present modified lysin polypeptides are capable of reducing a biofilm. […] Biofilms are then washed and treated with e.g., a 2-fold dilution series of the lysin in TSBg at e.g., 37° C. for 24 hours. After treatment, wells are washed, air-dried at e.g., 37° C. and stained with e.g., 0.05% crystal violet for 10 minutes. After staining, the biofilms are destained in e.g., 33% acetic acid and the OD600 of e.g., extracted crystal violet is determined. The MBEC of each sample is the minimum lysin concentration required to remove >95% of the biofilm biomass assessed by crystal violet quantitation.
(§3) The anti-biofilm activity of pp296 was determined against 1-day old biofilms formed by 17 MSSA and 20 MRSA isolates in a 96-well broth microdilution format. The Minimum Biofilm Eradication Concentration (MBEC) values for pp296, compared to wild-type PlySs2 (CF-301), were determined by the following standard methodology. Bacteria were suspended in PBS (0.5 McFarland Units), diluted 1:100 in TSBg (66% tryptic soy broth, 0.2% glucose), added as 0.15 mL aliquots to 96-well polystyrene microplates, and incubated for 24 hours at 37° C. Biofilms were then washed and treated with a 2-fold dilution series of CF-301 or pp296 in TSBg at 37° C. for 24 hours. All samples were examined in triplicate. After treatment, wells were washed, air-dried at 37° C., and stained with 0.05% crystal violet for 10 min The loss of biofilm biomass was assessed visually, and crystal violet was quantitated by solubilization in 33% (vol/vol) acetic acid. The optical density of 600 nm (OD600) was determined using a SpectraMax M3 Multimode microplate reader. The MBEC of each sample was the minimum lysin concentration required to remove >95% of the biofilm biomass assessed by crystal violet quantitation.

[3] = tested on: 1-day old biofilms formed by MRSA isolates; assay: Minimum Biofilm Eradication Concentration (MBEC), MRSA biofilms; type: cell-based, Staphylococcus aureus; settings: 24 hours treatment
Experimental: as §2, §3

[4] = Toxicity screening in mice; type: in vivo
Experimental: Selected modified lysin polypeptides from Table 3 were subjected to further testing as described in more detail in subsequent Examples. […] The same 30 mg/kg dose of PlySs2 caused a 100% incidence of adventitial findings, which is an indication of potential toxicity.

[5] = tested on: 5 MRSA strains and 5 MSSA strains; assay: Checkerboard synergy assay with daptomycin or vancomycin; type: cell-based, Staphylococcus aureus; settings: MRSA (JMI-41293) strain
[6] = tested on: S. aureus isolate CFS-860; assay: Mouse neutropenic thigh infection (MNTI) model; type: in vivo, Staphylococcus aureus; settings: neutropenic BALB/cByJ mice, intravenous, dose response, 24 hours
Experimental: The efficacy of four modified lysin polypeptides was compared to wild-type PlySs2 in a dose response (0-60 mg/kg) assay using a mouse neutropenic thigh infection (MNTI) model.
Bacterial inoculum was generated by allowing bacterial cells to grow to exponential phase in MHB until they reached an optical density (OD) of about 0.5 at 600 nm. The bacterial cells were thoroughly washed, resuspended in 0.9% sodium chloride USP, and diluted to an equivalent of 3.9×10^8 colony forming units (CFU)/mL. Cells were further diluted as described below in 0.9% sodium chloride USP and maintained on wet ice.
Neutropenia was induced in female BALB/cByJ mice (5-7 weeks, Jackson Laboratories) by intraperitoneal (ip) administration of 150 mg/kg and 100 mg/kg of cyclophosphamide 4 and 1 days prior to inoculation of bacteria, respectively. Bacterial inoculum (S. aureus isolate CFS-860, 100 μl of 10^7 CFU/ml solution) was injected intramuscularly (IM) into both posterior thighs of each mouse. […] At 2 hours post-inoculation (Early Control) and 24 hours post-treatment initiation, animals were euthanized (CO2 asphyxiation), and the thighs were aseptically removed. Each thigh was weighed, placed into 4 ml sterile saline and homogenized in 7 ml lysing tubes using a Precellys24 high-throughput tissue homogenizer (Bertin Corp, Rockville, Md.). Dilutions of homogenate were plated on tryptic soy blood agar plates (Becton Dickinson) and incubated at 37° C. overnight in a CO2 incubator. Bacterial burden was enumerated and expressed as log 10 CFU/g of thigh weight and compared to control animals harvested at 2 hours post infection (Early Control) and animals treated with vehicle (Late Control).
The data representing mouse thigh bacterial burden are depicted in FIG. 2. The upper dot on the y-axis is vehicle alone, and the lower dot on the y-axis is the Early Control. pp1149 is in fact also a wild-type lysin over-expressed and purified in the laboratory along with the other modified lysin polypeptides and used as an additional positive control.

Row | Molecule | % Wild-Type Activity at 37° C. (bacterial inoculum) | Adventitial findings (lesions) ([4]; 30 mg/kg) | % of CF-301 wild-type, 37° C. (bacterial inoculum) [%] | % of CF-301 wild-type, 40° C. (bacterial inoculum) [%] | % of CF-301 wild-type, 42° C. (bacterial inoculum) [%] | % of CF-301 wild-type, 45° C. (bacterial inoculum) [%] | % of CF-301 wild-type, 48° C. (bacterial inoculum) [%] | % of CF-301 wild-type, 50° C. (bacterial inoculum) [%] | Bactericidal efficacy (thigh bacterial burden) versus wild type [6] | other results
1 | B1 | 100% | all mice | – | – | – | – | – | – | – | MIC50 (MSSA isolates): 0.5 µg/mL; MIC90 (MSSA isolates): 1 µg/mL; MIC Range (MSSA isolates): 0.5 to 1 µg/mL; MIC50 (MRSA isolates): 0.5 µg/mL; MIC90 (MRSA isolates): 0.5 µg/mL; MIC Range (MRSA isolates): 0.12 to 1 µg/mL; FIC index ([1]; MRSA JMI-6182): 0.5; FIC index ([1]; MSSA ATCC 29213): 0.5; FIC index ([1]; MSSA strain JMI-40979): 0.5; FIC index ([1]; against 6 of the 10 strains examined): 0.5; MBEC50 [2]: 0.125 µg/mL; MBEC90 [2]: 0.125 µg/mL; MBEC Range [2]: 0.125 to 0.5 µg/mL; MBEC50 [3]: 0.125 µg/mL; MBEC90 [3]: 0.125 µg/mL; MBEC Range [3]: 0.125 to 0.25 µg/mL; Kidney findings (renal changes) [4]: did not result in kidney findings; Incidence of adventitial findings ([4]; 30 mg/kg): 100%; FIC index [5]: 0.5
2 | B2 | 122% and 146% | did not result in adventitial lesions | 122.1 | 110.8 | 116.7 | 82.0 | 36.5 | 11.2 | activity comparable to wild-type PlySs2 lysin | –
3 | B3 | 258% | did not result in adventitial lesions | 258.3 | 149.1 | 189.4 | 80.0 | 0.0 | 0.0 | activity comparable to wild-type PlySs2 lysin | –
4 | B4 | 220% | did not result in adventitial lesions | 219.9 | 248.4 | 270.4 | 82.1 | 0.0 | 0.0 | activity comparable to wild-type PlySs2 lysin | –
